# Results as given in PMC4036362, “Normal Activation of Discoidin Domain Receptor 1 Mutants with Disulfide Cross-links, Insertions, or Deletions in the Extracellular Juxtamembrane Region” (The Journal of Biological Chemistry, 2014).
# Residue numbers refer to the chain shown, from its start. Numbers in names are those of the source.
# B1: DDR1 V408C (in the C287S background) (receptor, human, UniProt Q08345 19-913, looked up)
# chain: DADMKGHFDPAKCRYALGMQDRTIPDSDISASSSWSDSTAARHSRLESSDGDGAWCPAGSVFPKEEEYLQVDLQRLHLVALVGTQGRHAGGLGKEFSRSYRLRYSRDGRRWMGWKDRWGQEVISGNEDPEGVVLKDLGPPMVARLVRFYPRADRVMSVCLRVELYGCLWRDGLLSYTAPVGQTMYLSEAVYLNDSTYDGHTVGGLQYGGLGQLADGVVGLDDFRKSQELRVWPGYDYVGWSNHSFSSGYVEMEFEFDRLRAFQAMQVHSNNMHTLGARLPGGVECRFRRGPAMAWEGEPMRHNLGGNLGDPRARAVSVPLGGRVARFLQCRFLFAGPWLLFSEISFISDVVNNSSPALGGTFPPAPWWPPGPPPTNFSSLELEPRGQQPCAKAEGSPTAILIGCLVAIILLLLLIIALMLWRLHWRRLLSKAERRVLEEELTVHLSVPGDTILINNRPGPREPPPYQEPRPRGNPPHSAPCVPNGSALLLSNPAYRLLLATYARPPRGPGPPTPAWAKPTNTQAYSGDYMEPEKPGAPLLPPPPQNSVPHYAEADIVTLQGVTGGNTYAVPALPPGAVGDGPPRVDFPRSRLRFKEKLGEGQFGEVHLCEVDSPQDLVSLDFPLNVRKGHPLLVAVKILRPDATKNARNDFLKEVKIMSRLKDPNIIRLLGVCVQDDPLCMITDYMENGDLNQFLSAHQLEDKAAEGAPGDGQAAQGPTISYPMLLHVAAQIASGMRYLATLNFVHRDLATRNCLVGENFTIKIADFGMSRNLYAGDYYRVQGRAVLPIRWMAWECILMGKFTTASDVWAFGVTLWEVLMLCRAQPFGQLTDEQVIENAGEFFRDQGRQVYLSRPPACPQGLYELMLRCWSRESEQRPPFSQLHRFLAEDALNTV
# notes: discoidin domain receptor 1, isoform DDR1b, human; full-length cDNA in pRK5; source: HEK293, transiently transfected, in lysate
# B2: DDR1 residue 409 to cysteine (in the C287S background) (receptor, human, UniProt Q08345 19-913, looked up)
# chain: B1 chain with C390V, A391C
# notes: discoidin domain receptor 1, isoform DDR1b, human; full-length cDNA in pRK5; The text gives only the range V408C to A417C (10 single mutants); also called one of the 10 mutants V408C to A417C; source: HEK293, transiently transfected, in lysate
# B3: DDR1 residue 410 to cysteine (in the C287S background) (receptor, human, UniProt Q08345 19-913, looked up)
# chain: B1 chain with C390V, K392C
# notes: as for B2
# B4: DDR1 residue 411 to cysteine (in the C287S background) (receptor, human, UniProt Q08345 19-913, looked up)
# chain: B1 chain with C390V, A393C
# notes: as for B2
# B5: DDR1 E412C (in the C287S background) (receptor, human, UniProt Q08345 19-913, looked up)
# chain: B1 chain with C390V, E394C
# notes: as for B1
# B6: DDR1 residue 413 to cysteine (in the C287S background) (receptor, human, UniProt Q08345 19-913, looked up)
# chain: B1 chain with C390V, G395C
# notes: as for B2
# B7: DDR1 residue 414 to cysteine (in the C287S background) (receptor, human, UniProt Q08345 19-913, looked up)
# chain: B1 chain with C390V, S396C
# notes: as for B2
# Target: the molecule itself
# Experiment: cross-linking; disulfide cross-linking of introduced cysteines in transiently transfected HEK293 cells, untreated or with 10 ug/ml collagen I for 90 min at 37 °C; lysis in 1% Nonidet P-40 buffer with NEM; nonreducing SDS-PAGE on 5% gels, Western blot with anti-DDR1; efficiency as percent dimeric of total DDR1
row,Protein,dimerization efficiency (percent dimeric of total DDR1) [%]
1,B1,> 70
2,B2,> 70
3,B3,> 70
4,B4,> 70
5,B5,> 70
6,B6,> 70
7,B7,> 70
